Several values for one entry are separate records, joined by “and”; a condition that tells them apart may be missing. Equal entries are not always repeated. Entries after “also recorded” stand apart in the source; their conditions may differ.
T1: human adenosine receptor A2B (Homo sapiens, UniProt P29275)
T1 construct: FLAG
T1 sequence (P29275 1-332): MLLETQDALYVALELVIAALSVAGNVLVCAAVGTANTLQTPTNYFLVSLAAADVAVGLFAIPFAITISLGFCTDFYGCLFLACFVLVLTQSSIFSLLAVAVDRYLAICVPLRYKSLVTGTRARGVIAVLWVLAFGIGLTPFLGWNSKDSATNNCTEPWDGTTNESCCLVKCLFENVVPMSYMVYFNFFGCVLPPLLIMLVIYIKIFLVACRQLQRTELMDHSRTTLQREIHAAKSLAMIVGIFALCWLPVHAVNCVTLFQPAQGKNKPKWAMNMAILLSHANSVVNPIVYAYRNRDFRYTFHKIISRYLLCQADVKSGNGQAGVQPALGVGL

T2: human adenosine receptor A2B (human, UniProt P29275 1-332)
T2 construct: whole, on cells; the tag is not described; also called A2bR; human A2bR
T2 sequence (looked up): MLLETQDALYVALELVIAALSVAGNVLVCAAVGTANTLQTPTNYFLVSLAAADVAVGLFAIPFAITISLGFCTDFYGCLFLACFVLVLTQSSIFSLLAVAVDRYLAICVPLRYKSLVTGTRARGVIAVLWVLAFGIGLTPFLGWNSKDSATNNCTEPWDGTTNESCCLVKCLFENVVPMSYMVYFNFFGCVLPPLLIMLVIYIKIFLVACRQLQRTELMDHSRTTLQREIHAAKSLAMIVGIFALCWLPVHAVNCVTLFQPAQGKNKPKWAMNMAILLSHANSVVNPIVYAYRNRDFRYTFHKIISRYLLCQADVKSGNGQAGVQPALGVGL

T3: human adenosine receptor A3 (human, UniProt P0DMS8 1-318)
T3 construct: whole, on cells; the tag is not described; also called A3R; human A3R
T3 sequence (looked up): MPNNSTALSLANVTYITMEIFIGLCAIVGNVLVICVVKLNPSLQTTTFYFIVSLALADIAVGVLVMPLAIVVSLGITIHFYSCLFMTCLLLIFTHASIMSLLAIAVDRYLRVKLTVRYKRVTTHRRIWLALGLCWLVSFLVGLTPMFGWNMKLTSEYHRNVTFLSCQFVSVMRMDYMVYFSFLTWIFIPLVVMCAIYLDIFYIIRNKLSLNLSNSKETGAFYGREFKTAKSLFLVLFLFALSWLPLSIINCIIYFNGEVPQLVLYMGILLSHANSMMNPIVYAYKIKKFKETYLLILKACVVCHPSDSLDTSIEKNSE

B1: 3F6-9G5: anti-human A2aR monoclonal antibody from mouse hybridoma clone; HCVR SEQ ID NO: 36, LCVR SEQ ID NO: 42 (antibody, V domains shown)
VH: QVQLQQPGTELVKPGAPVRLSCKASGFAFTSYWMNWVRQRPGRGLEWIGRIDPSDSEAHYHHKFWGKATLTVDKSSSTVYIQLNGLTSEDSAVYYCLRSLYGKGDYWGHGTTLTVSS
VL: DVLMTQTPLSLSVRLGDQASISCRSSQSLVHRNGNTYLEWYLQRPGQSPKLLIYKVSNRFSGVPDRFSGSGSGTDFTLKISRVEAEDLGVYYCYQGSHVPLTFGSGTKLEIK
B2: anti-human A2aR monoclonal antibody 1B5-3D7 (antibody, V domains shown)
VH: QVQLQQPGTELVKPGAPVKLSCKTSGFTFTRFWMNWVRQRPGRGLEWIGRIDPYDSETQYNHKFWDRATLTVDKSSSTVYIQLSSLTSEDSAVYYCGRSLYGKGDYWGQGTTLTVSS
VL: DVLMTQSPLSLPVSLGDQASISCRSSQSIVHSNGNTYLEWYLQRPGQSPKLLIYKVSNRFSGVPDRFSGSGSGTYFTLRISRVEAEDLGIYYCFQGSHVPLTFGSGTTLELK
notes: Tested as whole mouse IgG2a / kappa, purified from hybridoma supernatant or made recombinantly in Expi293 cells; also called 1B-3D7

Experiments:
[1] = tested on: cynomolgus A2aR on cynomolgus T cells (PBMC); assay: primary cell binding by flow cytometry, cynomolgus PBMC; conditions: rabbit Fc format, 2 μg/ml
Method: (§1) Human and cynomolgus PBMCs were purchased from Cytologics LLC (San Diego, CA) and iQ Biosciences (Berkeley, CA), respectively. Primary cell binding was determined using anti-human A2aR clone 3F6-9G5 at rabbit Fc format. In brief, 10^6 human and/or cynomolgus PBMCs in 100 μl FACS buffer were incubated with 3F6-9G5 (2 μg/ml) at 4° C. for 60 minutes. Cynomolgus cross-reactive anti-human CD3 (clone SP34, BD), anti-human CD8 (clone RPA-T8, Biolegend) and Zombie Green fixable Viability dye (Biolegend, Cat. 423111) were used according to manufacturer's instruction to define live immune cell subsets. After 3 washes with FACS buffer, cells were stained with PE-conjugated donkey anti-rabbit Fc detection antibody (1:200, Biolegend, Cat. 406421) for 30 minutes at 4° C. After 3 washes with FACS buffer, cells were analyzed on LSRII (Becton Dickinson). Data was analyzed using FlowJo (Becton Dickinson).

[2] = target: T1, human adenosine receptor A2B; assay: flow cytometry-based cell-binding assay, HEK293T-A2B; conditions: duplicate
Method: To test the specificity of the antigen binding molecules of the invention, e.g., anti-A2aR antibodies or antigen binding fragments thereof to human A2aR and not towards any of the other 3 adenosine receptor family members, a flow cytometry-based cell-binding assay was performed by Multispan Inc (Hayward, CA). HEK293T cells stably expressing various adenosine receptors, i.e., human A1R, A2bR, and A3R, and mouse A2R, generated by Multispan Inc and HEK293T parental cell lines were used in the assay. Briefly, adenosine receptor-overexpressing cell lines and HEK293T parental cell lines were incubated with 2, 10, and 50 nM of anti-human A2aR monoclonal antibodies (clones 1B5-3D7 and 3F6-9G5) and 10 and 50 nM of mouse IgG2a Isotype control at 4° C. in the dark for 60 minutes. Anti-FLAG antibody (Abcam, ab72469, 2 μg/mL) was used as positive control for cell lines over-expressing various adenosine receptors, respectively. After 3 washes with FACS buffer (PBS plus 0.1% BSA and 0.2% sodium azide), cells were stained with an anti-mouse-IgG-PE (Invitrogen, cat. P852) detection antibody for 45 minutes at 4° C. The cells were then washed 3 times with FACS buffer and analyzed on FACSort (Becton Dickinson). Data was analyzed using CellQuest Pro (Becton Dickinson).

[3] = target: T4, human A2aR on human T cells (PBMC) (Homo sapiens, UniProt P29274); assay: primary cell binding by flow cytometry, human PBMC; conditions: rabbit Fc format, 2 μg/ml
T4 construct: host or cells: human PBMC (T cells)
Method: as §1

[4] = target: T2, human adenosine receptor A2B; assay: flow cytometry on HEK293T cells stably expressing human A2bR
[5] = target: human adenosine A2A receptor (A2aR) (human, UniProt P29274 1-412); assay: cell-based or functional assay
[6] = target: T5, mouse adenosine receptor A2A (mouse, UniProt Q60613 1-410); assay: flow cytometry on HEK293T cells stably expressing mouse A2aR
T5 construct: whole, on cells; the tag is not described; also called mouse A2aR; mouse A2R

[7] = target: T3, human adenosine receptor A3; assay: flow cytometry on HEK293T cells stably expressing human A3R

cynomolgus A2aR on cynomolgus T cells (PBMC), sequence (as listed by the source): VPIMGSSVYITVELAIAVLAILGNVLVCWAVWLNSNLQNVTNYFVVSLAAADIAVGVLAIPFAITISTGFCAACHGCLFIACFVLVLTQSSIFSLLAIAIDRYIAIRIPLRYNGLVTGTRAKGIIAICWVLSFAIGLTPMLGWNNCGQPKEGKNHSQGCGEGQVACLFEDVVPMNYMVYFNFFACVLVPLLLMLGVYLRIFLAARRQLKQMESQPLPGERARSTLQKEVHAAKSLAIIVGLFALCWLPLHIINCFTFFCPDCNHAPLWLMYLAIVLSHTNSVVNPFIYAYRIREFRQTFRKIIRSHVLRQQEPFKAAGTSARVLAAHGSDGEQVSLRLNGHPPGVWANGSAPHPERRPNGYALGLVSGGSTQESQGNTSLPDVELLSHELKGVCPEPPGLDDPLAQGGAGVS
T4 sequence (P29274 whole entry): as the sequence (as listed by the source) above, with V1M, N263S, T371A, S379G, G407D counted along it
T5 sequence (Q60613 whole entry): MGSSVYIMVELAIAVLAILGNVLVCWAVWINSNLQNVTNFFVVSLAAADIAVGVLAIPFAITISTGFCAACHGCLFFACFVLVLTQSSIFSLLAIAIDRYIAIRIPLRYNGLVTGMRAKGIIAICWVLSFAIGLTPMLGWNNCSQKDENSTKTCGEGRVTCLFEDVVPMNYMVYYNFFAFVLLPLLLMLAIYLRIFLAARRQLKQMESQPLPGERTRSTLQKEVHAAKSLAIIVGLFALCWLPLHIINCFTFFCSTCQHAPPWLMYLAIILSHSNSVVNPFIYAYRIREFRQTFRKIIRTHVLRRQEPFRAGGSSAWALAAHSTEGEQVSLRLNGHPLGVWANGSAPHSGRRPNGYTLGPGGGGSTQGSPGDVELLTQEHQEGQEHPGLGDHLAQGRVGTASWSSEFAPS
human adenosine A2A receptor (A2aR), sequence (P29274 whole entry): as the sequence (as listed by the source) above, with V1M, N263S, T371A, S379G, G407D counted along it

| Molecule | binding to cynomolgus T cells (CD4+ and CD8+) of PBMC (FIG. 6) [1] | Geo Mean ([2]; 2 nM) | Geo Mean ([2]; 50 nM) | binding to human T cells (CD4+ and CD8+) of PBMC (FIG. 6) [3] | binding result [4] | IC50 (M), cAMP-Glo assay of NECA-induced cAMP in HEK293 cells stably expressing human A2aR [5] | binding result [6] | binding result [7] |
| --- | --- | --- | --- | --- | --- | --- | --- | --- |
| B1 | cross-reacted with cynomolgus T cells; also recorded: binds | 3.13 and 2.8 | 7.27 and 3.74 | bound to a small subset of human T cells; also recorded: binds | – | – | – | – |
| B2 | – | 5.42 and 3.8 | 3.42 and 2.79 | – | no binding (tested: 2, 10 and 50 nM tested) | 4.48e-09 M | no binding (tested: 2, 10 and 50 nM tested) | no binding (tested: 2, 10 and 50 nM tested) |
